# Measurements as given in US20220073620A1 (CHANGCHUN GENESCIENCE PHARMACEUTICAL, published 2022).
# T1: human VEGF-A-His (human, UniProt P15692 207-395)
# T1 construct: also called hVEGF-A
# T1 sequence: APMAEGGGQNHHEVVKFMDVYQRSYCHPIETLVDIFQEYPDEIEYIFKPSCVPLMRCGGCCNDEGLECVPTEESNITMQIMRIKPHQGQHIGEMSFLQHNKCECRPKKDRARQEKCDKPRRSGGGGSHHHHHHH
# Columns and labels:
# VEGFA protein = VEGFA protein (UniProt P15692-4 27-191, limits assumed); assay: cell-based or functional assay
# human VEGF-A-His = target: T1, human VEGF-A-His; assay: SPR (Biacore T200), human VEGF-A-His coupled to the chip, fusion protein flowed over
# Protocol: The affinities of FabT and FTF were detected by Biacore T200 instrument. The specific protocols were as follows. Human PD-L1-His (constructed by GeneScience, SEQ ID NO: 11) and human VEGF-A-His (constructed by GeneScience, SEQ ID NO: 13) were coupled to CMS biosensor chip (GE), and then the antibodies of different concentrations were flowed through the chip at a flow rate of 30 μL/min. The binding between the candidate antibody and antigen was performed with a binding time of 120 s and a dissociation time of 300 s. The kinetic fitting was performed using BIAevalution software (GE), and the results of affinity constants were obtained as shown in Table 6 and Table 7.
# Human PD-L1-His = target: T2, Human PD-L1-His (human, UniProt Q9NZQ7 19-238); assay: bridging ELISA, hPDL1-His and hVEGF121b-mFc as the two antigens; control diluted from 10 ug/ml
# T2 construct: also called hPD-L1
# T2 sequence (Q9NZQ7 19-238 limits assumed): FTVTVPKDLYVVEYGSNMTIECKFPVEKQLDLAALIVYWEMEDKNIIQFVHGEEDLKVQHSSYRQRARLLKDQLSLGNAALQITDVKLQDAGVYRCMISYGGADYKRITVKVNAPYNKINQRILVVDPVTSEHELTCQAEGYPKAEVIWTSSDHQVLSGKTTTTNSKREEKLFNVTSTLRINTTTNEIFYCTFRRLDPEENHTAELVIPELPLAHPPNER
# [1] = target: PDL1 on the surface of CHO-PDL1-CD3L cells (UniProt Q9NZQ7 19-290, limits assumed); assay: cell-based or functional assay
# Sequence of PDL1 on the surface of CHO-PDL1-CD3L cells (Q9NZQ7 19-290 limits assumed): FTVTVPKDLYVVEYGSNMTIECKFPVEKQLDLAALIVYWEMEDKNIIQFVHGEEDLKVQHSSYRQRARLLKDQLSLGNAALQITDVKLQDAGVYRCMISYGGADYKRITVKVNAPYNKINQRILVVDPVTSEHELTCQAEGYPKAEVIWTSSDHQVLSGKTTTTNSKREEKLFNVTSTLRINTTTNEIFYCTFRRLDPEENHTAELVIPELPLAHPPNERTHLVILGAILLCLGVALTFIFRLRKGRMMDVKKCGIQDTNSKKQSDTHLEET
Binder,"IC50, luciferase reporter in NFAT-RE-Luc2P-KDR-HEK293 cells stimulated with 50 ng/ml VEGFA (VEGFA protein)",Kd (human VEGF-A-His),koff (human VEGF-A-His),kon (human VEGF-A-His),binding result (Human PD-L1-His),"EC50, luciferase reporter in Jurkat-PD1-NFAT cells co-cultured with CHO-PDL1-CD3L cells [1]"
"Eylea positive fusion protein (Fc fusion, not shown: a dimerising Fc or GST, also called control molecule Eylea) SDTGRPFVEMYSEIPEIIHMTEGRELVIPCRVTSPNITVTLKKFPLDTLIPDGKRIIWDSRKGFIISNATYKEIGLLTCEATVNGHLYKTNYLTHRQTNTIIDVVLSPSHGIELSVGEKLVLNCTARTELNVGIDFNWEYPSSKHQHKKLVNRDLKTQSGSEMKKFLSTLTIDGVTRSDQGLYTCAASSGLMTKKNSTFVRVHEK",0.75 nM,1.51 nM,0.000932 s⁻¹,617000 M⁻¹ s⁻¹,no binding (tested: 10 ug/ml),
"anti-human PD-L1 humanized monoclonal antibody 047 Ab-6 (antibody, V domains shown) VH: EVQLVESGGGLVQPGGSLRLSCAASYFPFSDSWIHWVRQAPGKGLEWVAWISPYGGSSYYADSVQDRFTISADTSKNTAYLQMNSLRAEDTAVYYCAKRHWPGGFDHWGQGTLVTVSS VL: DIQMTQSPSSLSASVGDRVTITCSASQDVTTAVAWYQQKPGKAPKLLIYSASFPYRGVPSRFSGSGSGTDFTLTISSLQPEDFATYYCQQYMYHPSTFGQGTKVEIK",,,,,,3.55 nM
